# According to patent US20260234247A1 (published 2026):
# Substitutions are numbered along the chain they refer to.
# B1: LK-RB2-24 (antibody, human IgG4 S228P, kappa, V domains shown)
# VH: QIQLVQSGPEVKKPGETVKISCKASGYTFTTYGMSWVKQAPGKGLKWMGWLNIYSGVPAYADDFKGRFAFSLESSASTAYLQINNLKNEDTATYFCARRENYDGYGMDYWGQGTSVTVSS
# VL: DIVMTQSPATLSVTPGDRVSLSCRASQSISDYLHWYQQKSHESPRLLIKYASQSISGIPSRFSGSGSGSDFTLSINSVEPEDVGVYYCQNGHSFPYTFGGGTKLEIKR
# B2: LK-RB2-15 (antibody, human IgG4 S228P, kappa, V domains shown)
# VH: QIQLVQSGPELKKPGETVKISCKASGYTFTTYGMSWVKQAPGKGLKWMGWINVYSGVPTYADDFKGRFAFSLEISASTAYLQINNLKDEDTATYFCARRKDYSGHCFDYWGQGTTLTVSS
# VL: DIVLTQSPASLAVSLGQRATFSCRASESVDTYGISFMHWYQQKPGQPPKLLIYRASNLESGIPARFSGSGSRTDFTLTINPVETDDVATYYCQQSKKEPYTFGGGTKLEIKR
# B3: 3C1 (antibody, human IgG4, kappa, V domains shown)
# VH: EVQLVESGGGLVQPGGSLRLSCAASGFTFSDYDMHWVRQATGKGLEWVATIDTAGDTYYPDSVRGRFTISRENAKNSLSLQMNSLRAGDTAVYFCARDVPGTGFDHWGQGTLVTVSS
# VL: SSELTQDPAVSVALGQTVRITCQGDSLRSYYESWYQQKPGQAPVLVIYGKNNRPSGIPDRFSGSISGNTASLTITGTQAEDEADYYCNSRDNSGDHWVFGGGTRLTVLG
# B4: 15G8 (antibody, human IgG4 S228P, kappa, V domains shown)
# VH: DVQLQGSGPGLVKPSETLSLTCSVTGYSITSGYYWNWIRQFPGKKLEWMGYISYDGSNNYNPSLKNRITISRDTSKNQFSLKLNSVTAADTATYYCAHGYSYYYAMDAWGQGTSVTVSS
# VL: DIQMTQSPSSLSASVGDRVTITCRTSQDISNYLNWYQQKPGKAVKLLISYTSRLHSGVPSRFSGSGSGTDYTLTISSLQPEDFATYYCQQGNTLPTFGQGTKLEIKR
# B5: LK-RB2-16 (antibody, human IgG4 S228P, kappa, V domains shown)
# VH: QIQLVQSGPELKKPGETVKISCKASGYTFTTYGMGWVKQAPEKGLKWMGWINTNSGAPTYGDDFKGRFAFSLETSASTAYLQINNLKNEDTATYFCAHYGRPWFAYWGQGTLVTVSA
# VL: DIQMTQSPASLSASVGETVTITCRASENIYSYLAWYHQKQGESPQLLVYNAKTLAEGVPSRFSGSGSGTQFSLKINSLQPEDFGSYYCQHHYNIPLTFGAGTKLELKR
# B6: LK-RB2-26 (antibody, human IgG4 S228P, kappa, V domains shown)
# VH: QVQLKESGPGLVAPSQSLSITCTVSGFSLTSYGVHWVRQPPGKGLEWLGVIWAGGSTDYNAAFISRLNISKDISESQVFFRMNSLQTDDTAMYYCARDQMVRSAMDYWGQGTSVTVSS
# VL: DIQMIQSPSSMFASLGDRVSLSCRASQGIRGNLDWYQQKPGGTIKLLIYSTSNLNSAVPSRFSGSGSGSDYSLTISNLESEDFADYYCLQRNASPYTFGGGTKLEIKR
# B7: LK-RB2-27 (antibody, human IgG4 S228P, kappa, V domains shown)
# VH: DVKLVESGGGLVKPGGSLKLSCAASGFTFSSYSMSWVRQTPEKRLEWVATISTGGSYTYYPDSVKGRFTISRDNAKNTLYLQMSSLKSEDTAMFYCTRGSMDYWGQGTSVTVSS
# VL: DILMTQSPSSMSVSLGDTVSITCHASQDISSNIGWLQQKPGNSFKGLIYHGTNLEDGVPSRFSGSGSGADYSLTISSLESEDFADYYCVQYAQFPYTFGGGTKLEIKR
# B8: LK-RB2-28 (antibody, human IgG4 S228P, kappa, V domains shown)
# VH: B7 VH with V64M
# VL: B7 VL with T22A
# Target: T1, human LILRB2 expressed on CHOK1 cells (CHOK1-hLILRB2) (human, UniProt Q8N423 22-597)
# T1 construct: whole, on cells; also called CHOK1-LILRB2
# T1 sequence (Q8N423 22-597): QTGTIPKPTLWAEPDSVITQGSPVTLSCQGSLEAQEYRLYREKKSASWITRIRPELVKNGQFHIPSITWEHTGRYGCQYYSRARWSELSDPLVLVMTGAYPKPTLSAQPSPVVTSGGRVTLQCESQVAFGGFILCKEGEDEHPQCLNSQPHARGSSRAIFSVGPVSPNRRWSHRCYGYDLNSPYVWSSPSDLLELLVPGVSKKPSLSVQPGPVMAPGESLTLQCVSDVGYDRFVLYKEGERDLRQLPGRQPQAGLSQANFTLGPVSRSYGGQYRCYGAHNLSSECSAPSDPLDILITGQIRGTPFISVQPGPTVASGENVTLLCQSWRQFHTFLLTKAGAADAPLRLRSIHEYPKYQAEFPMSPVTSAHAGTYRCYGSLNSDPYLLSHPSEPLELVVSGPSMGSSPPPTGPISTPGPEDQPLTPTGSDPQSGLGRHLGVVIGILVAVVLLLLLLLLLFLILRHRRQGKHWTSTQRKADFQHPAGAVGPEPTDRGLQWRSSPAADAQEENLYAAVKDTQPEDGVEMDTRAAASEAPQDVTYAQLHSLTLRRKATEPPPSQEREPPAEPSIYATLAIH
# Assay: cell based RBA, flow cytometry: blocking of HLA-G binding to CHOK1-hLILRB2 cells
EC50,Top Inhibition,Binder
0.0956 nM,74.1%,B1
0.162 nM,77.5%,B2

# Target: T1, human LILRB2 expressed on CHOK1 cells …
# Assay: FACS binding to CHOK1-hLILRB2 cells
EC50,binding result,Binder
0.18 nM,–,B1
–,no binding,B3
–,no binding,B4
6.01 nM,–,B5
0.16 nM,–,B2

# Target: T2, human LILRB1 expressed on CHOK1 cells (CHOK1-hLILRB1) (human, UniProt Q8NHL6 24-650)
# T2 construct: whole, on cells; also called CHOK1-LILRB1
# T2 sequence (Q8NHL6 24-650): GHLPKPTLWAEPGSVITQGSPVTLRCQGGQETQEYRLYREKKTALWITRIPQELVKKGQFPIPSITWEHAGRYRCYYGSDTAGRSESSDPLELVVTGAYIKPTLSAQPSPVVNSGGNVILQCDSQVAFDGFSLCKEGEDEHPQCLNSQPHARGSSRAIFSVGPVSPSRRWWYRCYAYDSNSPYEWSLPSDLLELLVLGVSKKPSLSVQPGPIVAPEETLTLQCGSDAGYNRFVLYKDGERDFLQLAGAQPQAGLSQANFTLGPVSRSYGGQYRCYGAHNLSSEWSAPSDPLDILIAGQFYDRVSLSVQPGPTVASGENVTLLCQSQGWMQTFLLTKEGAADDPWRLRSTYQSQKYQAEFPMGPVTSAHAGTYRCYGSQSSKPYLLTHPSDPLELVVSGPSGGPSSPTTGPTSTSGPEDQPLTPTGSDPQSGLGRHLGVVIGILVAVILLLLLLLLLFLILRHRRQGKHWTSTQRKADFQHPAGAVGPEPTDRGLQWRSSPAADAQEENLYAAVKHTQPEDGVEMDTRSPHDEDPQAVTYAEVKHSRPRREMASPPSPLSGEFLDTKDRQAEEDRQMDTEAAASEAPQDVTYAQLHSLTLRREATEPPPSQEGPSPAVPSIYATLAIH
# Assay: cell based RBA, flow cytometry: blocking of HLA-G binding to CHOK1-hLILRB1 cells
EC50,Top Inhibition,Binder
1.7 nM,93.4%,B1
0.94 nM,79.6%,B3
0.69 nM,82.5%,B4
13.4 nM,35.3%,B5
4.18 nM,70.8%,B2

# Target: T2, human LILRB1 expressed on CHOK1 cells …
# Assay: FACS binding to CHOK1-hLILRB1 cells
row,EC50,Binder
1,0.848 nM,B1
2,0.62 nM,B3
3,0.57 nM,B4
4,4.3 nM,B5
5,31.4 nM,B2

# Target: cynomolgus LILRB2 (cynomolgus)
# Sequence (chain, as listed by the source): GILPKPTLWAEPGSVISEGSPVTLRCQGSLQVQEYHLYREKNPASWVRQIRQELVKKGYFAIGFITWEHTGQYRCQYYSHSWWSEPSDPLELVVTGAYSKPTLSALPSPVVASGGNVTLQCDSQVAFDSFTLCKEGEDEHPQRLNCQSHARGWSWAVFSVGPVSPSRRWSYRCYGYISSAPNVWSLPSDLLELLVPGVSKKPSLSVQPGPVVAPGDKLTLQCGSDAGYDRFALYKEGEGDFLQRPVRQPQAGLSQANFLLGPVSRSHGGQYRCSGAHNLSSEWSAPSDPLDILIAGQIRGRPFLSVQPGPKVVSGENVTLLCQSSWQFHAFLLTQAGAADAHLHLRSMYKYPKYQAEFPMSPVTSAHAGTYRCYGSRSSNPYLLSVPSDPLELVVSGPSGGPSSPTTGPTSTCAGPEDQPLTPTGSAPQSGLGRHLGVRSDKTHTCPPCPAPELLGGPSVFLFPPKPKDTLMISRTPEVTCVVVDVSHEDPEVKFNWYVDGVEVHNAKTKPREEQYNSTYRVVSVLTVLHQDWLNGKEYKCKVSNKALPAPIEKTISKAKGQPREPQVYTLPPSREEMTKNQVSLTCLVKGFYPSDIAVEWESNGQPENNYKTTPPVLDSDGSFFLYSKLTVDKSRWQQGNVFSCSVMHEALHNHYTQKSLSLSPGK
# Assay: Octet off-rate ranking;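 further: antibody dissociation rate constants against cynomolgus LILRB2 plus human LILRB1, LILRB2, LILRA1 and LILRA2, measured on an Octet instrument to rank binding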
# From the text: Binding affinity of anti-LILRB1 and anti-LILRB2 antibodies against human LILRB1, LILRB2, LILRA1, LILRA2 and cynomolgus LILRB2 was ranked by measuring dissociation rate constant (Kdis) using the Octet system.
row,koff,Binder
1,0.00184 s⁻¹,B6
2,0.00109 s⁻¹,B7
3,0.00114 s⁻¹,B8
